Results from patent US20240247076A1 (SUZHOU ALPHAMAB, published 2024).

T1: mApple-chis (mouse, UniProt Q91Y47 19-389)
T1 construct: range 1-389; also called mapple-chis-biotin
T1 sequence (looked up): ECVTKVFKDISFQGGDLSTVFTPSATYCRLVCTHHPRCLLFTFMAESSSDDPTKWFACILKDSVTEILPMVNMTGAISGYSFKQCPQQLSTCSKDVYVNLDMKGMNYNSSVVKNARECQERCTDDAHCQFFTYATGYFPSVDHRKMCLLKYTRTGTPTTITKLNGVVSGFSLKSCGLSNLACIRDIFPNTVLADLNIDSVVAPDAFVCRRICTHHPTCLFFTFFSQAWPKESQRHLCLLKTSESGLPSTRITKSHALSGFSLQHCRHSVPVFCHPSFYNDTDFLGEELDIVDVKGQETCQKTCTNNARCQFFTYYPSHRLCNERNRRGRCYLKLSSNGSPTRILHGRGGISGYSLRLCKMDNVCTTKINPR


How the values were obtained:
hApple-chis [1] = target: T2, hApple-chis (human, UniProt P03951 19-387); test: ELISA, purified tagged VHH on coated antigen
T2 construct: range 1-387; also called happle-chis-biotin
Method: (§1) Plates were coated with hApple and mApple proteins, respectively, at 0.5 μg/well and reacted overnight at 4° C. The plates were added with a gradient dilution series of the candidate single-domain antibodies with His and HA tags obtained in 1.4. and reacted at room temperature for 2 hours. After washing, a chicken anti-HA-tag secondary antibody (streptavidin-HRP, abcam) labeled with horseradish peroxidase was added and reacted at room temperature for 2 hours. After washing, a chromogenic solution was added, absorbance values at 450 nm and 650 nm wavelengths were read, and a final absorbance value was obtained by subtracting the absorbance value at 650 nm wavelength from the absorbance value at 450 nm wavelength. Data processing and mapping analysis were carried out by using software SotfMax Pro v5.4, and through four-parameter filling, binding curves of the candidate single-domain antibodies against FXI to hApple and mApple and EC₅₀ values were obtained so as to reflect the affinities of the candidate antibodies for hApple and mApple.

[2] = target: T3, recombinant human factor XI (hFXI) (human, UniProt P03951 19-625); test: ELISA, clone lysate on coated antigen
T3 construct: also called hFXI-Chis; hFXI-CHis
Method: (§2) The FXI-binding positive phages obtained after panning were infected with blank E. coli and plated. Then 190 single colonies were randomly selected, named iFE 1 to iFE 190, and separately inoculated into 2TY-AG, and when the colonies were cultured to OD600 of about 0.8, IPTG was added to a final concentration of about 1 mM; after the expression was induced overnight at 25° C., single-domain antibodies were expressed in E. coli periplasm; the next day, the bacteria were harvested and lysed, and the supernatant was collected and used for ELISA assay. The plates were coated with hFXI, hApple and mApple, respectively, and then reacted overnight at 4° C., and the obtained sample lysis supernatant (the control group was E. coli lysis supernatant as a blank control) was added and reacted at room temperature for 2 hours. After washing, secondary antibody Goat anti-HA tag HRP (purchased from abcam) was added and reacted at room temperature for 2 hours. After washing, TMB chromogenic solution was added, absorbance values at 450 nm and 650 nm wavelengths were read, and a final absorbance value was obtained by subtracting the absorbance value at 650 nm wavelength from the absorbance value at 450 nm wavelength. When the OD value of the sample wells was more than 2 times larger than that of the control wells, the sample wells were determined as positive cloning wells.

hApple-chis [3] = target: T2, hApple-chis; test: ELISA, clone lysate on coated antigen
Method: as §2

mApple-chis [4] = target: T1, mApple-chis; test: ELISA, clone lysate on coated antigen
Method: as §2

mApple-chis [5] = target: T1, mApple-chis; test: ELISA, purified tagged VHH on coated antigen
Method: as §1

Row | Binder | EC50 (hApple-chis [1]) [µg/mL] | OD [2] [OD] | OD (hApple-chis [3]) [OD] | OD (mApple-chis [4]) [OD] | EC50 (mApple-chis [5]) [µg/mL] | OD at 20 µg/mL (mApple-chis [5]) [OD] | OD at 20 µg/mL (hApple-chis [1]) [OD]
1 | iFE49 (VHH, not shown: small tags and cut ends, also called antibody strain 49) VHH: QVQLQESGGDSVQAGGSLRLSCAASGLISTGLISTRHCMSWFRQAPGKEREEVAVIGSDGSTRYGDFAKGRFTISKDTAKNTLYLQMNSLEPEDTAMYYCAAGPLVSTASRRRTRCPEGPRENIYWGQGTQVTVSS | 1.16 | 0.998 | 1.26 | 0.061 | – | – | –
2 | iFE148 (VHH, not shown: small tags and cut ends) VHH: QVQLQESGGGSVQAGGSLRLSCVASGYTFNNNFVGWFRQAPGKEREGVAAIYSLGGSTYYADSVKGRFTISQDNAKNTVYLQMDSLKPEDTATYYCAGAITWVPPLSHRRYTYWGQGTQVTVSS | 0.263 | 0.714 | 0.998 | 0.681 | 0.255 | – | –
3 | iFE96 (VHH, not shown: small tags and cut ends, also called antibody strain 96) VHH: QVQLQESGGGSVQAGGSLRLSCAASGFTASSNFMGWFRQAPGKEREGVAAIYTGGASTFYADSVKGRFTISQDNAKNTVYLEMDTLKPEDTAMYYCAAAPRWIAPLRADRYEYWGQGTQVTVSS | 1.25 | 0.407 | 0.58 | 0.334 | – | 0.8 | 1.3
4 | iFE35 (VHH, not shown: small tags and cut ends, also called antibody strain 35) VHH: QVQLQESGGGSVQAGGSLGLSCTASGFTFDDSDMGWYRQAPGNECELVSTISSDGRGFYADSVKGRFTISQDRAKNTVYLHMNSLKPEDTAVYYCAAGWYGSFCSGLGQGTQVTVSS | 0.0241 | 1.8 | 1.61 | 0.043 | – | – | –
5 | iFE43 (VHH, not shown: small tags and cut ends, also called antibody strain 43) VHH: QVQLQESGGGSVQAGGSLRLSCAASGLRFSIYDWSWVRQAPGKGLEWVSAINSGGGVTSYADSVKGRVTISRDNAKNTLYLQMHSLKTEDTAVYYCATGDGGSWYRDGDWGQGTQVTVSS | – | 1.06 | 1.38 | 0.04 | – | – | –
6 | iFE50 (VHH, not shown: small tags and cut ends, also called antibody strain 50) VHH: QVQLQESGGGLVQPGGSLRLSCAASGFTFSLYDMSWVRQAPGQGLEWVSAITNPGGSTYYADSVKDRFTISRDNAKNTLYLQMNSLKTEDTAVYYCAIGRRATFQREKDWGQGTQVTVSS | – | 0.439 | 1.05 | 0.042 | – | – | –
7 | iFE56 (VHH, not shown: small tags and cut ends, also called antibody strain 56) VHH: QVQLQESGGGSVQAGGSLRLSCAASGHTYSSNYCMAWFRQAPGKEREGVAAIYSDGSTSYADSVKGRFTISKDNAKNTLYLQIDSLKPEDTSLYYCAATAYEGSWTGKQPLCLLYEYTYWGQGTQVTVSS | 0.323 | 1.42 | 1.46 | 0.04 | – | – | –

Now from value to binder:

Row | EC50 (hApple-chis [1]) [µg/mL] | OD [2] [OD] | OD (hApple-chis [3]) [OD] | OD (mApple-chis [4]) [OD] | EC50 (mApple-chis [5]) [µg/mL] | OD at 20 µg/mL (mApple-chis [5]) [OD] | OD at 20 µg/mL (hApple-chis [1]) [OD] | Binder
8 | 0.0329 | 1.33 | 1.62 | 0.069 | – | – | – | iFE5 (VHH, not shown: small tags and cut ends, also called antibody strain 5) VHH: QVQLQESGGGSVQAGGSLRLSCAASGYTYSFNSMGWFRQAPGKEREGVAVIYLGSTHYADSVKGRFTISQDNAKNMVYLQMNSLKPEDTAMYYCAADLLEYDGTWFGSTYNYWGQGTQVTVSS
9 | 0.0498 | 1.24 | 1.69 | 1.83 | 0.0468 | – | – | iFE166 (VHH, not shown: small tags and cut ends) VHH: QVQLQESGGGSVQAGGSLRLSCVASGFTGCRNIMSWYRQAPGKDREFVSAIDSDGVDYADSVKGRFSISQHNDKKTMYLQMTSLKLEDTAMYYCRRVDFGTTSQCRGNYWGQGTQVTVSS
10 | 0.735 | 1.3 | 0.994 | 0.774 | 1.23 | 1.4 | – | iFE97 (VHH, not shown: small tags and cut ends, also called antibody strain 97) VHH: QVQLQESGGGSVQAGGSLRLSCTASEFTFDDSDMAWYRQAPGNECELVSTITSDGGTYYADSVKGRFTISQDNAKNTMYLQMNNLKPEDTAVYYCAADQWGSAEGDCTSSYPGGYWGQGTQVTVSS
11 | 0.0162 | 1.46 | 1.09 | 1.07 | 0.0129 | – | – | iFE163 (VHH, not shown: small tags and cut ends) VHH: QVQLQESGGDSVQAGGSLRLSCIASGFTFDDSDMGWYRQAPGHQCEFVSHITNDGTTYYADSVKGRFTISRDNAKNTVYLQMNSLKPEDAAVYYCAADAWGGGRSTCVNPIGYWGQGTQVTVSS
12 | 0.0205 | 0.619 | 0.974 | 0.843 | 0.0584 | – | – | iFE168 (VHH, not shown: small tags and cut ends, also called antibody strain 168) VHH: QVQLQESGGGSVQAGGSLRLSCAASGYTFSNNFVGWFRQAPGKKREGVATIYTLGSSTYYADSVKGRFTISQDNAKNTLYLEMNSLKPEDTAMYYCAAARGWVSPLDPARFVYWGQGTQVTVSS
13 | 0.0195 | 1.94 | 1.98 | 0.056 | – | – | – | iFE13 (VHH, not shown: small tags and cut ends, also called antibody strain 13) VHH: QVQLQESGGGSVQAGGSLRLSCAGDGYTYSMGAMAWFRQAPGKEREGVALIATSSGFISYTDSVKGRFTISQDDAKIYLQMNSLKPEDTAMYYCAAGTQFSWSPGSYNYWGQGTQVTVSS
